In test [1] the target is IGF-IR extracellular domain (human, UniProt P08069). Put plainly: SPR.
The target of test [2] is rat IGF-IR (rat, UniProt P24062). As to the kind of experiment: other, immunoprecipitation.
Test [3] concerns the target mouse IGF-IR (mouse, UniProt Q60751). Put plainly: other, immunoprecipitation.

mouse IGF-IR, sequence (Q60751 31-936): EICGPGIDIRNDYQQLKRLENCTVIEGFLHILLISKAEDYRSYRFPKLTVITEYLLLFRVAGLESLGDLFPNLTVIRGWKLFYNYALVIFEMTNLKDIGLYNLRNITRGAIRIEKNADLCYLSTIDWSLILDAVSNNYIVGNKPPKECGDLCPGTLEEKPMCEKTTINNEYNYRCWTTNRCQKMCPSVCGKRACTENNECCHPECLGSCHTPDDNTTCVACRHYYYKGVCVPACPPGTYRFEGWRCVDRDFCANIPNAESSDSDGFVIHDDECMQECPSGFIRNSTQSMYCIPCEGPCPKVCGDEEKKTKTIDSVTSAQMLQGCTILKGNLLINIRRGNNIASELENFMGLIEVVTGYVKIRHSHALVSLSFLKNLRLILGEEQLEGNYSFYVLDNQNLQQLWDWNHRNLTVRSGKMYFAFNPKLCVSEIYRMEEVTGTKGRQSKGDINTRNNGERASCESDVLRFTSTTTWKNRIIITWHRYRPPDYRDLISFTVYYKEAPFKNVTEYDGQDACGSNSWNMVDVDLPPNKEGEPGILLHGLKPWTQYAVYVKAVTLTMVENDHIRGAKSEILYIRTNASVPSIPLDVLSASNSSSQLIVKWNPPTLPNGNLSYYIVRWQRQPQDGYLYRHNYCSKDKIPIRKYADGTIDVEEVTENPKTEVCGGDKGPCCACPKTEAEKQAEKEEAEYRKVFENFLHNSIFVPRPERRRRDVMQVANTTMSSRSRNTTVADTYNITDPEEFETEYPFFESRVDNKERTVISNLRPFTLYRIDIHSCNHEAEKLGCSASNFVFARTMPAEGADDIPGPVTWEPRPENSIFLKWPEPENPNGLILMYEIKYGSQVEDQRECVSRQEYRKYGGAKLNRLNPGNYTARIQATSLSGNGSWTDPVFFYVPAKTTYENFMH
rat IGF-IR, sequence (P24062 31-936): as the sequence (Q60751 31-936) above, with D271G, Y629F, M714L counted along it

B1: Antibody 23 (antibody, V domains shown)
VH: EVQLVQSGGGLVHPGGSLRLSCAGSGFTFSNYAMYWVRQAPGKGLEWVSAIGSGGGTYYADSVKGRFTISRDNAKNSLYLQMNSLRAEDMAVYHCARAPNWGSEAFDIWGQGTMVTVSS
VL: DIQMTQSPSSLSASVGDRVTITCRASQGISSWLAWYQQKPEKAPKSLIYAASSLQSGVPSRFSGSGSGTDFTLTISSLQPEDFATYYCQQYNSYPITFGQGTRLEIK
Broadly, the Kd is the constant that tells how readily two partners part at equilibrium. Turning to B1, in test [1], the Kd worked out at 194 pM.

B2: Antibody 8 (antibody, V domains shown)
VH: EVQLVQSGGGLVHPGGSLRLSCAGSGFTFRSYAMYWVRQAPGKGLEWVSAIGSGGGTYYADSVKGRFTISRDNAKNSLYLQMNSLRAEDMAVYYCARAPNWGSDAFDIWGQGTMVTVSS
VL: DIQMTQSPSSLSASVGDRVTITCRASQGISSWLAWYQQKPEKAPKSLIYAASSLQSGVPSRFSGSGSGTDFTLTISSLQPEDFATYYCQQYNSYPPTFGPGTKVDIK
For B2, in test [1], the Kd stood at 2010 pM.

B3: Antibody 1A (antibody, V domains shown)
VH: EVQLVQSGGGLVHPGGSLRLSCAGSGFTFRNYAMYWVRQAPGKGLEWVSAIGSGGGTYYADSVKGRFTISRDNAKNSLYLQMNSLRAEDMAVYYCARAPNWGSDAFDIWGQGTMVTVSS
VL: DIQMTQSPSSLSASVGDRVTITCRASQGISSWLAWYQQKPEKAPKSLIYAASSLQSGVPSRFSGSGSGTDFTLTISSLQPEDFATYYCQQYNSYPPTFGPGTKVDIK
Regarding B3, the binding result in test [2] and in test [3] was “no binding” each time. In test [1], the affinity, expressed as Kd, was 397 pM.

The values are drawn from patent US7378503 (dated 2008).
